The test deals with T1, extracellular domain of human IL-4Rα (human, UniProt P24394, biotin (Biotin-labeled IL-4Rα on the Biacore sensor chip)).
T1 construct: interleukin-4 receptor alpha, human, extracellular domain; Source and limits of the recombinant protein may stand in the materials list of the supplement; Biotin labelling is told only for the Biacore T200 experiment; also called IL-4 Receptor alpha
The test is described as follows: SPR; Biacore T200; biotin-labeled IL-4Rα immobilised on the sensor chip (BR100531); nanobody 15.625-2000 nM; running buffer PBS pH 7.4; 1:1 kinetic binding model. The conditions noted are these: both partners purified. (In general: Surface plasmon resonance follows binding to a sensor surface in real time, without labels.)

T1 sequence (P24394 26-232): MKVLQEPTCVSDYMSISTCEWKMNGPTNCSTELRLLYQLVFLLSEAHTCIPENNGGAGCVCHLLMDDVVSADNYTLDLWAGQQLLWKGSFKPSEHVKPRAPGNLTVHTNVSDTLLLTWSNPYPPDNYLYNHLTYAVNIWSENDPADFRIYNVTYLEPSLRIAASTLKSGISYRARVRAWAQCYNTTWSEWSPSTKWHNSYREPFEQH

B1: nanobody H5 (VHH)
VHH: QVQLVESGGGSVQAGGSLRLSCAASGSISSITYLGWFRQAPGKEREGVAALSTSSGTTYYADSVKGRFTVSLDNAKNTVYLQMNSLKPEDTALYYCAAADKGREYTLARAKYWYWGQGTQVTVSA
notes: synthetic nanobody selected from a library on the convex scaffold (pRDV containing Sb-convex, Addgene 132696) with randomised CDR3; also called H5^WT; H5 monomer; source: E. coli BL21 (pSBinit), periplasmic extract, purified (TALON Superflow)
The molecule B1 returned a Kd of 1.42 µM. This counts as single-digit micromolar.

B2: H5^E104R (VHH)
VHH: QVQLVESGGGSVQAGGSLRLSCAASGSISSITYLGWFRQAPGKEREGVAALSTSSGTTYYADSVKGRFTVSLDNAKNTVYLQMNSLKPEDTALYYCAAADKGRRYTLARAKYWYWGQGTQVTVSA
notes: also called H5 mutant E104R; source: E. coli BL21 (pSBinit), periplasmic extract, purified (TALON Superflow)
In turn, B2 returned a Kd of 1.03 µM.

B3: H5^A110Y (VHH)
VHH: QVQLVESGGGSVQAGGSLRLSCAASGSISSITYLGWFRQAPGKEREGVAALSTSSGTTYYADSVKGRFTVSLDNAKNTVYLQMNSLKPEDTALYYCAAADKGREYTLARYKYWYWGQGTQVTVSA
notes: also called H5 mutant A110Y; source: E. coli BL21 (pSBinit), periplasmic extract, purified (TALON Superflow)
In turn, B3 displayed a Kd of 0.708 µM. The Kd values of the last two molecules are within 1.5-fold of each other.

The Kd is the free concentration of one partner at which half of the binding sites on the other are occupied at equilibrium, for simple one-to-one binding. Read a high Kd as a looser complex.

(Values after publication PMC11301380, “Non-invasive strategy: Developing a topical IL-4Rα-specific nanobody for the treatment of allergic airway diseases” (Materials Today Bio, 2024).)
